Results: patent US6713265 (SYNAPTIC PHARMACEUTICAL, dated 2004)
Read-outs that look alike come from different tables or passages of the source. Ends that are not written are not given here.

Legend:
human Y5 receptor [1] = biological target: T1, human Y5 receptor (human, UniProt Q15761 1-445); test: 125I-PYY3-36 displacement, LM(tk-) membranes
T1 construct: also called CG-19; hY5
T1 sequence: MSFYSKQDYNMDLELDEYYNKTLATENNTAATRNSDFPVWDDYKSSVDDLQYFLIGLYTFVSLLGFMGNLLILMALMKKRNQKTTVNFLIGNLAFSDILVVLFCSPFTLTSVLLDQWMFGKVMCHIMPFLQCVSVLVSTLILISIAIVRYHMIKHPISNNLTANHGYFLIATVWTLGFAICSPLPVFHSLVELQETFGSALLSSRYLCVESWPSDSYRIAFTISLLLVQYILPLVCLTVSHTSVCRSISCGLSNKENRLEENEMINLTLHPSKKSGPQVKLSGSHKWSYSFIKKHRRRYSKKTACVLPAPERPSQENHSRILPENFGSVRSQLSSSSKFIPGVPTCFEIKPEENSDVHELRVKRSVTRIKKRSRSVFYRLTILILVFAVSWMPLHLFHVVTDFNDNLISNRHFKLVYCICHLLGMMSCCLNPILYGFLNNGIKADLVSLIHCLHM

rat Y4 receptor [2] = biological target: T2, rat Y4 receptor (rat, UniProt Q63447 1-375); test: 125I-PYY displacement, COS-7 membranes
T2 construct: whole, on cells; also called rY4

human Y2 receptor [3] = biological target: T3, human Y2 receptor (human, UniProt P49146 1-381); test: 125I-PYY displacement, COS-7 membranes
T3 construct: whole, on cells
T3 sequence (looked up): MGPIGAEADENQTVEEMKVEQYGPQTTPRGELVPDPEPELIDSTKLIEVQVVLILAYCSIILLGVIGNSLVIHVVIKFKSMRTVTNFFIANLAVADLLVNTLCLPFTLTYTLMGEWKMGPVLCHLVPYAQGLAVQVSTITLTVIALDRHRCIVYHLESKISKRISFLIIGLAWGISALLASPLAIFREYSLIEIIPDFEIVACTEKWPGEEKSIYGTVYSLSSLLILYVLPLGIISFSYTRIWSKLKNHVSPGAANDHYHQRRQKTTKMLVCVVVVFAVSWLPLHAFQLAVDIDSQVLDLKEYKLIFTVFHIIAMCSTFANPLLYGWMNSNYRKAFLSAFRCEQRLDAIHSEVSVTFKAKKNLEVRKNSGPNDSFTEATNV

human Y2 receptor [4] = biological target: T3, human Y2 receptor; test: 125I-PYY displacement, COS-7 membranes; remark: listed apart in the source
[5] = biological target: T4, rat hypothalamic Y5 receptor (rat, UniProt Q63634 1-445); test: 125I-PYY displacement, COS-7 membranes
T4 construct: Expressed transiently in COS-7 or stably in 293 cells; also called rat Y5; CG-18
T4 sequence: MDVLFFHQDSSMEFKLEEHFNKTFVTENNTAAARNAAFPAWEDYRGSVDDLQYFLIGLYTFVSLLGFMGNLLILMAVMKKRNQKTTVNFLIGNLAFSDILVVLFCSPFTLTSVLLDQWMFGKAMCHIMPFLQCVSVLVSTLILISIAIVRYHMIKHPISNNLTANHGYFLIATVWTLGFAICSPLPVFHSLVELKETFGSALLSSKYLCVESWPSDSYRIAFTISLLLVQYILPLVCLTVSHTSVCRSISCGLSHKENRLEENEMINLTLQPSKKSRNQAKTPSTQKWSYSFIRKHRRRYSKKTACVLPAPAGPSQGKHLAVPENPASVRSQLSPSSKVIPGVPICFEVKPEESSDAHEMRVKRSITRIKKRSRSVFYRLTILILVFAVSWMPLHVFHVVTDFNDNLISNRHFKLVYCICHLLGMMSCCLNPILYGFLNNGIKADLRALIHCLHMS

rat Y2 receptor = biological target: T5, rat Y2 receptor (rat, UniProt Q9ERC0 1-381); test: 125I-PYY displacement, COS-7 membranes
T5 construct: whole, on cells; also called rY2
T5 sequence: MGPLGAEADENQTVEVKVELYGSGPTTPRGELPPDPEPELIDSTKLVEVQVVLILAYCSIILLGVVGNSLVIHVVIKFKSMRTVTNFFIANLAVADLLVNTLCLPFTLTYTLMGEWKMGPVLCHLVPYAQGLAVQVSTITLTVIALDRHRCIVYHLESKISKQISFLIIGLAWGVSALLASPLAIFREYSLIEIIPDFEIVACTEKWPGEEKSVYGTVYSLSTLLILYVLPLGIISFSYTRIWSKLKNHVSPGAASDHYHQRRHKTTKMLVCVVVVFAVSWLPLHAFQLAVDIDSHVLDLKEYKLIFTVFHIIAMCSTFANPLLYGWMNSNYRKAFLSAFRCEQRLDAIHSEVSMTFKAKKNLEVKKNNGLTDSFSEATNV

rat Y1 receptor = biological target: T6, rat Y1 receptor (rat, UniProt P21555 1-382); test: 125I-PYY displacement, COS-7 membranes
T6 construct: whole, on cells; also called rY1
T6 sequence (looked up): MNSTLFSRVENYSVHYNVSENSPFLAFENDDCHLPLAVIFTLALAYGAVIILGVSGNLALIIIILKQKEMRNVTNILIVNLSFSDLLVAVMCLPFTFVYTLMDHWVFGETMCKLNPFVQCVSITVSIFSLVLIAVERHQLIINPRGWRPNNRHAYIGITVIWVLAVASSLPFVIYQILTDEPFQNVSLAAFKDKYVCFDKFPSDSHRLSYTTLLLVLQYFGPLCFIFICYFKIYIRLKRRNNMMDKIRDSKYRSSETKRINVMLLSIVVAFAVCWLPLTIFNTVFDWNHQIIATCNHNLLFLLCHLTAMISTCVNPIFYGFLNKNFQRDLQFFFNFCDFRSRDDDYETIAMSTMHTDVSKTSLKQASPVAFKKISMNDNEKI

[6] = biological target: T4, rat hypothalamic Y5 receptor; test: 125I-PYY displacement, COS-7 membranes; remark: listed apart in the source
human Y5 receptor [7] = biological target: T1, human Y5 receptor; test: 125I-PYY displacement, COS-7 membranes
[8] = biological target: T4, rat hypothalamic Y5 receptor; test: cell-based or functional assay
rat Y4 receptor [9] = biological target: T2, rat Y4 receptor; test: 125I-PYY displacement, COS-7 membranes; remark: listed apart in the source
[10] = biological target: T4, rat hypothalamic Y5 receptor; test: 125I-PYY displacement, COS-7 membranes; remark: listed apart in the source
human Y1 receptor [11] = biological target: T7, human Y1 receptor (human, UniProt P25929 1-384); test: 125I-PYY displacement, COS-7 membranes
T7 construct: whole, on cells; stably transfected 293 cells for function
T7 sequence (looked up): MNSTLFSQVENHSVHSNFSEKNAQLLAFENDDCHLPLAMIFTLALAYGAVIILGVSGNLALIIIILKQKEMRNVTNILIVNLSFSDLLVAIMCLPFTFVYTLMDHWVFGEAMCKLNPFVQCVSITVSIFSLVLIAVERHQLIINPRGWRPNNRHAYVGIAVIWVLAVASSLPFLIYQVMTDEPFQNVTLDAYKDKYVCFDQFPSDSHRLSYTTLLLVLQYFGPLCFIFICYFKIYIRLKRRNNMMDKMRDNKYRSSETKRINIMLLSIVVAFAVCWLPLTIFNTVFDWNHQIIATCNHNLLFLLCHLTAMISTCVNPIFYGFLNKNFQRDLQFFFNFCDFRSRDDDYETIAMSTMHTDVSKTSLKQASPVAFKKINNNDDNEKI

human Y4 receptor [12] = biological target: T8, human Y4 receptor (human, UniProt P50391 1-375); test: 125I-PYY displacement, COS-7 membranes
T8 construct: whole, on cells

human Y1 receptor [13] = biological target: T7, human Y1 receptor; test: 125I-PYY displacement, COS-7 membranes; remark: listed apart in the source
human Y4 receptor [14] = biological target: T8, human Y4 receptor; test: 125I-PYY displacement, COS-7 membranes; remark: listed apart in the source
human Y5 receptor [15] = biological target: T1, human Y5 receptor; test: 125I-PYY displacement, COS-7 membranes; remark: listed apart in the source
canine Y5 receptor [16] = biological target: T9, canine Y5 receptor (canine, UniProt O62729 1-446); test: 125I-PYY displacement, COS-7 membranes
T9 construct: Transiently expressed in COS-7 cells; also called canine (beagle) Y5; BO11
T9 sequence: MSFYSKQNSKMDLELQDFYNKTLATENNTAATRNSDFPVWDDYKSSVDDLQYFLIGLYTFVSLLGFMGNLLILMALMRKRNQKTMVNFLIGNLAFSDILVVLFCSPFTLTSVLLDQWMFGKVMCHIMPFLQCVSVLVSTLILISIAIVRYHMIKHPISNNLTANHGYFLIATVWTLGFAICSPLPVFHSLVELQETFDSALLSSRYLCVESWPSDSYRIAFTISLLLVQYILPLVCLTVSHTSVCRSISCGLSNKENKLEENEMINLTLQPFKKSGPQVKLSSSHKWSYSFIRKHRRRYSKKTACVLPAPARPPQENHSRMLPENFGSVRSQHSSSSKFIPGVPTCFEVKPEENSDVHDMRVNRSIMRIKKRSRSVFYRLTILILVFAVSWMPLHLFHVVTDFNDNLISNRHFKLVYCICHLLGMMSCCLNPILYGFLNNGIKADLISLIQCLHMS

human Y5 receptor [17] = biological target: T1, human Y5 receptor; test: cell-based or functional assay
canine Y5 receptor [18] = biological target: T9, canine Y5 receptor; test: 125I-PYY displacement, COS-7 membranes; remark: listed apart in the source
human Y5 receptor [19] = biological target: T1, human Y5 receptor; test: 125I-PYY displacement, LM(tk-) membranes

T2 sequence (Q63447 whole entry): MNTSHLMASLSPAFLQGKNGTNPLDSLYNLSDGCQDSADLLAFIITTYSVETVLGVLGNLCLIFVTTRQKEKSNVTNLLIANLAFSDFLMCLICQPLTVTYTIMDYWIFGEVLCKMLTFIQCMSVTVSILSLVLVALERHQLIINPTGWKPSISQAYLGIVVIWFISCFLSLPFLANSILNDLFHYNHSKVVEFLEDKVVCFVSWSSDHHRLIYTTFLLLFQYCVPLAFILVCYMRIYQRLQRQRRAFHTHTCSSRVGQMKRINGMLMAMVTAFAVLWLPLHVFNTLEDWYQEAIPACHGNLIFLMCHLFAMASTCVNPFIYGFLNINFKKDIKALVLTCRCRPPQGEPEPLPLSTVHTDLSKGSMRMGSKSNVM
T8 sequence (P50391 whole entry): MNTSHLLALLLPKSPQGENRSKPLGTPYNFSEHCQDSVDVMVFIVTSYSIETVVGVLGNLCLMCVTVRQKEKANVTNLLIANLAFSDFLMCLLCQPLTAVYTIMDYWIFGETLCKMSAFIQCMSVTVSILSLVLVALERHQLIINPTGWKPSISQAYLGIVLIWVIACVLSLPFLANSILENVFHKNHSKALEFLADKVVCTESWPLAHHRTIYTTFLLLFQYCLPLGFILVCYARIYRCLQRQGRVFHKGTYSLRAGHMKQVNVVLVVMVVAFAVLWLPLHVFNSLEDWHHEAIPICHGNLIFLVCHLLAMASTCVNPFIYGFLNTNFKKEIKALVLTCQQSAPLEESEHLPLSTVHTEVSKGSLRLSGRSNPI

B1: human PP31-36 (peptide, UniProt P01298 60-65, looked up)
peptide: LTRPRY
notes: range 60-65; Range counted on the mature peptide
Human Y5 receptor [1]
  Ki: 41000 nM
Rat Y4 receptor [2]
  Ki: 26 nM

B2: porcine NPY26-36 (peptide, UniProt P01304 35-45, looked up)
peptide: HYINLITRQRY
notes: range 26-36; Range counted on the mature peptide
Human Y2 receptor [3]
  Ki: 380 nM
Human Y2 receptor [4]
  Ki: 380 nM

B3: porcine NPY16-36 (peptide, UniProt P01304 25-45, looked up)
peptide: DLARYYSALRHYINLITRQRY
notes: range 16-36; Range counted on the mature peptide
Human Y5 receptor [1]
  Ki: 180 nM
[5]
  Ki: 260 nM
Rat Y2 receptor
  Ki: 35 nM
Rat Y4 receptor [2]
  Ki: 200 nM
Rat Y1 receptor
  Ki: 140 nM
[6]
  Ki: 260 nM
Human Y5 receptor [7]
  Ki: 300 nM

## FLRF (C-terminal amide) [FLRF-amide]
[8]
  EC50, inhibition of forskolin-stimulated cAMP accumulation, 293 cells: 13000 nM
[5]
  Ki: 5500 nM
Rat Y1 receptor
  Ki: 45000 nM

## APLEPMYPGDYATHEQRAQYETQLRRYINTLTRPRY (peptide, UniProt P06303 30-65, looked up, mature; also called PP, rat) [rat PP]
Rat Y4 receptor [9]
  Ki: < 0.2 nM
Human Y5 receptor [1]
  Ki: 130 nM
[8]
  EC50, inhibition of forskolin-stimulated cAMP accumulation, 293 cells: 130 nM
[5]
  Ki: 230 nM
[6]
  Ki: 230 nM
Human Y5 receptor [7]
  Ki: 630 nM
[10]
  Ki: 180 nM
Human Y1 receptor [11]
  Ki: 450 nM
Human Y4 receptor [12]
  Ki: 0.16 nM
Human Y1 receptor [13]
  Ki: 450 nM
Human Y4 receptor [14]
  Ki: 0.16 nM
Human Y5 receptor [15]
  Ki: 630 nM
Canine Y5 receptor [16]
  Ki: 160 nM

B4: porcine NPY13-36 (peptide, UniProt P01304 22-45, looked up)
peptide: PAEDLARYYSALRHYINLITRQRY
notes: range 13-36; Range counted on the mature peptide; also called NPY13-36, porcine
Rat Y2 receptor
  Ki: 31 nM
Rat Y1 receptor
  Ki: 190 nM
Canine Y5 receptor [16]
  Ki: 120 nM

B5: human PYY13-36 (peptide, UniProt P10082 41-64, looked up)
peptide: SPEELNRYYASLRHYLNLVTRQRY
notes: range 13-36; Range counted on the mature peptide
Rat Y1 receptor
  Ki: 130 nM

B6: human PP2-36 (peptide, UniProt P01298 31-65, looked up)
peptide: PLEPVYPGDNATPEQMAQYAADLRRYINMLTRPRY
notes: range 2-36; Range counted on the mature peptide
Human Y5 receptor [17]
  EC50, inhibition of forskolin-stimulated cAMP accumulation, LM(tk-) cells: 2 nM
Human Y5 receptor [7]
  Ki: 2.1 nM
Human Y5 receptor [15]
  Ki: 2.1 nM

B7: porcine NPY22-36 (peptide, UniProt P01304 31-45, looked up)
peptide: SALRHYINLITRQRY
notes: range 22-36; Range counted on the mature peptide
Rat Y2 receptor
  Ki: 54 nM

B8: human PP13-36 (peptide, UniProt P01298 42-65, looked up)
peptide: TPEQMAQYAADLRRYINMLTRPRY
notes: as for B5
[5]
  Ki: 84 nM
[6]
  Ki: 290 nM
Human Y5 receptor [7]
  Ki: 720 nM
Human Y4 receptor [12]
  Ki: 39 nM
Human Y4 receptor [14]
  Ki: 39 nM
Human Y5 receptor [15]
  Ki: 720 nM

B9: human PP (peptide, UniProt P01298 30-65, looked up)
peptide: APLEPVYPGDNATPEQMAQYAADLRRYINMLTRPRY
notes: mature; also called PP, human; human pancreatic polypeptide
Canine Y5 receptor [18]
  Ki: < 10 nM
Rat Y4 receptor [9]
  Ki: < 0.2 nM
[5]
  Ki: 5 nM
Rat Y4 receptor [2]
  Ki: 0.04 nM
[6]
  Ki: 5 nM
[10]
  Ki: 5 nM
Canine Y5 receptor [16]
  Ki: 6.3 nM

## APLEPVYPGDNATPEQMAQYAADLRRYINMITRQRY (peptide, UniProt P01298 30-65, looked up, ends and bridges not checked, mature) [human [Ile^31, Gln^34]PP]
Human Y5 receptor [17]
  EC50, inhibition of forskolin-stimulated cAMP accumulation, LM(tk-) cells: 5.6 nM
Human Y5 receptor [7]
  Ki: 2 nM

## APLEPEYPGDNATPEQMAQYAAELRRYINMLTRPRY (peptide, UniProt P01302 30-65, looked up, mature; also called PP, bovine) [bovine PP]
Human Y5 receptor [1]
  Ki: 5 nM
Human Y5 receptor [19]
  Ki: 7.9 nM
[8]
  EC50, inhibition of forskolin-stimulated cAMP accumulation, 293 cells: 5.7 nM
[5]
  Ki: 8.4 nM
Rat Y1 receptor
  Ki: 120 nM
[6]
  Ki: 8.4 nM
Human Y5 receptor [7]
  Ki: 1.6 nM
Canine Y5 receptor [16]
  Ki: 10 nM

## APSEPHHPGDQATQDQLAQYYSDLYQYITFVTRPRF (ends and bridges not checked) [frog PP (rana temporaria)]
Rat Y1 receptor
  Ki: 720 nM
